26 molecules from patent US20130287781A1 (GlaxoSmithKline, published 2013) can be followed below.

As usually defined, the koff is the first-order rate constant of dissociation. A lower koff goes with a long-lived complex. For orientation: EC50 (read off the curve) means the midpoint of the concentration-response curve. Lower therefore signals a more potent agent. For orientation: Kd means the concentration at which binding is half-saturated. Low values mean a tighter complex, high ones a looser complex. Usually kon stands for a measure of how fast the partners come together. A low value points to slow association.

Substitutions are numbered along the chain they refer to. Numbers in names are those of the source. Like-named read-outs stand apart in the source and are kept apart here. Where no end group is shown, it is not given here. The star is where a group is joined. Biotin = O=C1N[C@H]2[C@H](CS[C@H]2CCCCC(=O)*)N1

In test [1] the target is T1, H28L16.
T1 construct: IgG1 (L235A, G237A) / kappa; CAMPATH-1H signal (1-19) left out; also called H28FL L16FL; NOGO H28L16
In words: competition ELISA: H28L16 captured on anti-human IgG, peptide pre-mixed with GST-human NOGO-A56 (1 ug/ml), bound NOGO detected with anti-GST-HRP. On the technique in general: ELISA stands for enzyme-linked immunosorbent assay.
Protocol: The plates were rinsed 3 times with TBS containing 0.05% Tween (TBST) then blocked with 1% BSA in TBST at room temperature for 1 hour. […] The plates were washed 3 times with TBST. Peptides (from 0 to 100 g/ml) and GST-human NOGO-A56 at a concentration of 1 ug/ml (diluted in 1% BSA in TBST) were pre-mixed prior to addition into the wells and incubated at room temperature for 1 hour. The plates were washed 3 times with TBST then incubated for 1 hour with rabbit anti-GST peroxidase conjugate (Sigma, #A7340, 1:2000, diluted in 1% BSA in TBST) for 1 hour. The plates were washed 3 times with TBST and then incubated with 50 l OPD peroxidase substrate (Sigma) per well for 10 minutes. The colour reaction was stopped by the addition of 25 l concentrated H₂SO₄. Absorbance at 490 nm was measured using a plate reader.

The target in test [2] is T2, GST-human NOGO-A56 (human).
T2 construct: Expressed in E. coli BL21 from pGEX-6P1 and purified on glutathione-sepharose; the GST tag is part of the protein in the assays; also called GST-Nogo-A 5+6; GST Nogo-A 5 + 6
In words: SPR (Biacore) off-rate ranking on GST-human NOGO-A56 chip, one experiment.
Protocol: (§1) GST-human NOGO-A56 was immobilised to a CM5 chip by primary amine coupling using the Biacore Wizard program designed for targeted immobilisation levels. The CM5 sensor surface was activated by passing a solution of 50 mM N-hydroxy-succinimide (NHS) and 200 mM N-ethyl-N′-dimethylaminopropyl carbonide (EDC). Then GST-human NOGO-A56 in sodium acetate buffer, pH5.0 or pH 4.5, was passed over the chip and immobilised. After immobilisation was complete any still activated esters were blocked by an injection of 1M ethanolamine hydrochloride, pH8.5.
The GST-human NOGO-A56 chip was prepared as for kinetic analysis. Cell supernatants where taken directly from transient transfections of CHO-K1 cells. These were passed directly over the sensor surface and the interaction measured. A mock transfected cell supernatant was used for double referencing to remove any artefacts due to the tissue culture media. All runs were referenced against a blanked sensor surface (one that had been activated and blocked as described earlier but had no addition of ligand). Analysis of binding was carried out using the BIAevaluation kinetic analysis software version 4.1.

Test [3] concerns the target T2, GST-human NOGO-A56. Kind of test: direct ELISA, GST-human NOGO-A56 coated at 1.0 mcg/ml, purified antibody, OD490.
Test [4] has as its target T2, GST-human NOGO-A56. The test is described as above. The source holds these as a separate data set.
Test [5] has as its target T2, GST-human NOGO-A56. In words: SPR (Biacore), NOGO amine-coupled to CM5, antibody flowed over. (In general: In SPR one partner is held on a chip, and binding of the other changes the refractive index at the surface.)
Protocol: as §1
For test [6], the target named is T2, GST-human NOGO-A56. In words: SPR (Biacore) off-rate on NOGO chip, panel of H6FL CDR H3 variants with L13FL.
Test [7] addresses T2, GST-human NOGO-A56. In words: SPR (Biacore), GST-human NOGO-A56 amine-coupled to CM5, antibody flowed over, 37 C.
Protocol: as §1
(§2) The anti-NOGO mAbs were diluted down in HBS-EP (10 mM HEPES, pH 7.4, 150 mM NaCl, 3 mM EDTA, and 0.005% P-20 surfactant) for the BIAcore 3000 or HBS-EP+ (10 mM HEPES, pH 7.4, 150 mM NaCl, 3 mM EDTA, and 0.05% P-20 surfactant) in the case of the T100 and binding studies were carried out at range of defined antibody concentrations. All runs were referenced against a blanked sensor surface (one that had been activated and blocked as described earlier but had no addition of ligand). Analysis of binding was carried out using the BIAevaluation kinetic analysis software version 4.1 for the BIAcore 3000 and T100 kinetic analysis software version 1.0. […] Unless otherwise stated, the BIAcore experiments were performed at 25° C.
For test [8], the target named is T2, GST-human NOGO-A56. Kind of test: SPR (Biacore), GST-human NOGO-A56 amine-coupled to CM5, antibody flowed over, 25 C.
Protocol: as §1, §2
The target in test [9] is T2, GST-human NOGO-A56. Described as above. This is another data set of the same source.
Protocol: as §1, §2
Test [10] concerns the target T2, GST-human NOGO-A56. The test is described as above. This is another data set of the same source.
Protocol: as §1, §2

T1 sequence (light, as listed by the source): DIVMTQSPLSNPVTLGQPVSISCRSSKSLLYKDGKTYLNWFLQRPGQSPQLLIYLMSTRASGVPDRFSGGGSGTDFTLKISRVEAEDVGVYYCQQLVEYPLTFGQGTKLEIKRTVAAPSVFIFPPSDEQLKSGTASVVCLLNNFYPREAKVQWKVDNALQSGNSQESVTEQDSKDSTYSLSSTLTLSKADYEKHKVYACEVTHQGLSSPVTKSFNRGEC
T2 sequence (chain, as listed by the source limits assumed): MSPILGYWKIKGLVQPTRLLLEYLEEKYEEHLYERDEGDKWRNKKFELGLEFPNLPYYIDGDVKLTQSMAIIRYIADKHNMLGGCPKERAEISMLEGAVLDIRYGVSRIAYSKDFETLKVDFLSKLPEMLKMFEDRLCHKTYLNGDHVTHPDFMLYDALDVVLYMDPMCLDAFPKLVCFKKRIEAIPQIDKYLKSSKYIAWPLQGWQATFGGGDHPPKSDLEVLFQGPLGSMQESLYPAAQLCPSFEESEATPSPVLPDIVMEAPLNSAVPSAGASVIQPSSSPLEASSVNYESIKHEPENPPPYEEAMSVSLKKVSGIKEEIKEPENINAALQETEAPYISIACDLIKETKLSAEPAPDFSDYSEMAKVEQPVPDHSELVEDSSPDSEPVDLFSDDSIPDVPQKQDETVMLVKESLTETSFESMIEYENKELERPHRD

Turning to Biotin-SGSGKHEPENPPPYEEAMSV [peptide 17], in test [1], the binding result is “no binding (tested: about 33 mcg/ml)”.

B1: H6L13 (H6FL L13FL) (antibody, human IgG1, kappa, V domains shown)
VH: QVQLVQSGAEVKKPGASVKVSCKASGYTFTSYWMHWVRQAPGQGLEWIGNINPSNGGTNYNEKFKSRATMTRDTSTSTAYMELSSLRSEDTAVYYCELGQGYWGQGTLVTVSS
VL: DIVMTQSPLSLPVTLGQPASISCRSSKSLLYKDGKTYLNWFQQRPGQSPQLLIYLMSTRASGVPDRFSGGGSGTDFTLKISRVEAEDVGVYYCQQLVEYPLTFGQGTKLEIKR
notes: Human IgG1 (L235A, G237A, EU Index) / kappa; also called H6L13 with VH CDR3 GQGY
In the case of B1, the koff in test [2] came to 0.0138 s⁻¹; in [5], 0.00722 s⁻¹; in [6], 0.0198 s⁻¹. For the same molecule, the 50% effective concentration (EC50 (read off the curve)) in test [3] and in test [4] was roughly 0.1 µg/mL throughout. Also, the dissociation constant Kd in [5] was 6.97 nM. In addition, the kon in test [5] is 1.04e+06 M⁻¹ s⁻¹.

B2: H100L100 (antibody, V domains shown)
VH: B1 VH with G101S
VL: DIVMTQSPLSLPVTLGQPASISCRSSKSLLYKDGKTYLNWFRQRPGQSPQLLIYLMSTRASGVPDRFSGGGSGTDFTLKISRVEAEDVGVYYCQQLVEYPLTFGQGTKLEIK
notes: Full length versions of the heavy and light chains were expressed in CHO cells; H100 is H6 VH with G101S (Kabat), L100 is L13 VL with Q37R (Kabat); also called G101S/Q37R variant
Regarding B2, in test [5], the Kd came out at 0.396 nM, the dissociation rate constant (koff) came to 0.00507 s⁻¹ and the kon turned out to be 1.28e+07 M⁻¹ s⁻¹.

B3: H6L13 variant with VH CDR3 GQWY (antibody, human IgG1, kappa, V domains shown)
VH: B1 VH with G101W
VL: B1 VL
notes: Single point variant of H6FL with L13FL
B3 yielded a koff in test [6] of 0.0177 s⁻¹.

B4: H6L13 variant with VH CDR3 GQLY (antibody, human IgG1, kappa, V domains shown)
VH: B1 VH with G101L
VL: B1 VL
notes: as for B3
Molecule B4 displayed a koff in test [6] of 0.0132 s⁻¹.

B5: H27L13 (antibody, human IgG1, kappa, V domains shown)
VH: B1 VH with R38K, A40R, R67K, M70L, R72V, T74K, G99M
VL: B1 VL
notes: IgG1 (L235A, G237A) / kappa; CAMPATH-1H signal (1-19) left out
For the molecule B5, the “EC50 (read off the curve)” value in test [4] is roughly 0.08 µg/mL. The Kd in test [7] was found to be 0.641 nM; in [8] it was 0.28 nM; in test [9], 0.291 nM; in test [10], 0.606 nM. Besides, the koff was determined as 0.00422 s⁻¹ in test [7], 0.00183 s⁻¹ in test [8], 0.0018 s⁻¹ in test [9] and 0.00213 s⁻¹ in test [10]. Also, the kon in [7] amounted to 6.58e+06 M⁻¹ s⁻¹; in [8] it was 6.58e+06 M⁻¹ s⁻¹; in test [9] it was 6.2e+06 M⁻¹ s⁻¹; in [10], 3.5e+06 M⁻¹ s⁻¹.

B6: H6L13 variant with VH CDR3 IQGY (antibody, human IgG1, kappa, V domains shown)
VH: B1 VH with G99I
VL: B1 VL
notes: as for B3
B6 gave an off-rate constant (koff) in [6] of 0.0172 s⁻¹.

B7: H6L13 variant with VH CDR3 GIGY (antibody, human IgG1, kappa, V domains shown)
VH: B1 VH with Q100I
VL: B1 VL
notes: as for B3
B7 yielded a koff in test [6] of 0.0257 s⁻¹.

B8: H6L13 variant with VH CDR3 GDGY (antibody, human IgG1, kappa, V domains shown)
VH: B1 VH with Q100D
VL: B1 VL
notes: as for B3
Regarding B8, the koff in test [6] amounted to 0.0212 s⁻¹. The koff values of the last two molecules are within 1.5-fold of each other.

B9: H6L13 variant with VH CDR3 GLGY (antibody, human IgG1, kappa, V domains shown)
VH: B1 VH with Q100L
VL: B1 VL
notes: as for B3
B9 gave a koff in [6] of 0.019 s⁻¹.

B10: H6L13 variant with VH CDR3 GQFY (antibody, human IgG1, kappa, V domains shown)
VH: B1 VH with G101F
VL: B1 VL
notes: as for B3
Regarding B10, the koff in [6] is 0.0335 s⁻¹.

B11: H6L13 variant with VH CDR3 GQYY (antibody, human IgG1, kappa, V domains shown)
VH: B1 VH with G101Y
VL: B1 VL
notes: as for B3
In test [6], B11 gave a koff of 0.0328 s⁻¹.

B12: H6L13 variant with VH CDR3 RQGY (antibody, human IgG1, kappa, V domains shown)
VH: B1 VH with G99R
VL: B1 VL
notes: as for B3
In [6], B12 showed a koff of 0.0175 s⁻¹. Compared with the last molecule, the koff is about 1.9-fold lower.

B13: H6L13 variant with VH CDR3 GQGW (antibody, human IgG1, kappa, V domains shown)
VH: B1 VH with Y102W
VL: B1 VL
notes: as for B3
On to B13, for which the koff in test [6] worked out at 0.0216 s⁻¹. This koff and that of the molecule before are within 1.5-fold of each other.

B14: H1L11 (antibody, human IgG1, kappa, V domains shown)
VH: B1 VH with I48M, A68V, A79V
VL: B1 VL with M4I
notes: CDR H3 GQGY; also called humanised 2A10 variant H1L11 of WO05/061544
As to B14, in [4], the “EC50 (read off the curve)” value was roughly 0.2 µg/mL.

B15: H6L13 variant with VH CDR3 GQNY (antibody, human IgG1, kappa, V domains shown)
VH: B1 VH with G101N
VL: B1 VL
notes: as for B3
In test [6], B15 returned a koff of 0.00966 s⁻¹.

B16: H16L16 (antibody, human IgG1, kappa, V domains shown)
VH: B1 VH with R38K, A40R, R67K, M70L, R72V, T74K
VL: B1 VL with L11N, A19V, Q42L
notes: as for B5
On to B16, for which the “EC50 (read off the curve)” value in [4] is roughly 0.08 µg/mL. In addition, in test [7], the Kd was 1.16 nM, the koff turned out to be 0.00616 s⁻¹ and the kon came to 5.31e+06 M⁻¹ s⁻¹. In test [10], this molecule returned an equilibrium dissociation constant (Kd) of 1.08 nM, a koff of 0.00372 s⁻¹ and a kon of 3.43e+06 M⁻¹ s⁻¹.

B17: H6L13 variant with VH CDR3 GSGY (antibody, human IgG1, kappa, V domains shown)
VH: B1 VH with Q100S
VL: B1 VL
notes: as for B3
In turn, B17 registered a koff in test [6] of 0.0207 s⁻¹.

B18: H100L101 (antibody, V domains shown)
VH: B1 VH with G101S
VL: B2 VL with R42Q, Q50R
notes: Full length version expressed in CHO cells; L101 is L13 VL with Q45R (Kabat)
B18: in test [5], the Kd was 0.329 nM, the koff stood at 0.00429 s⁻¹ and the kon came to 1.3e+07 M⁻¹ s⁻¹.

B19: H6L13 variant with VH CDR3 GAGY (antibody, human IgG1, kappa, V domains shown)
VH: B1 VH with Q100A
VL: B1 VL
notes: as for B3
For B19, the off-rate constant (koff) in [6] was determined as 0.0315 s⁻¹.

B20: H6L13 variant with VH CDR3 GVGY (antibody, human IgG1, kappa, V domains shown)
VH: B1 VH with Q100V
VL: B1 VL
notes: as for B3
B20 gave a koff in test [6] of 0.0178 s⁻¹.

B21: H6L13 variant with VH CDR3 GQSY (antibody, human IgG1, kappa, V domains shown)
VH: B1 VH with G101S
VL: B1 VL
notes: as for B3
Take B21: the koff in test [6] is 0.0186 s⁻¹.
As for Biotin-SGSGTPSPVLPDIVMEAPLN [peptide 6 (biotin-SGSG-TPSPVLPDIVMEAPLN)], the binding result in test [1] was “binds”.
Turning to Biotin-SGSGVLPDIVMEAPLNSAVP [peptide 7 (biotin-SGSG-VLPDIVMEAPLNSAVP)], the “IC50 (read off the curve)” value in [1] was roughly 0.9 µg/mL.

B22: Hc(G95M)Lc (antibody, human IgG1, kappa, V domains shown)
VH: QVQLQQPGTELVKPGASVKLSCKASGYTFTSYWMHWVKQRPGQGLEWIGNINPSNGGTNYNEKFKSKATLTVDKSSSTAYMQLSSLTSEDSAVYYCELMQGYWGQGTLVTVSS
VL: DIVITQDELSNPVTSGESVSISCRSSKSLLYKDGKTYLNWFLQRPGQSPQLLIYLMSTRASGVSDRFSGSGSGTDFTLEISRVKAEDVGVYYCQQLVEYPLTFGAGTKLELKR
notes: also called HcLc containing the G95M mutation of the CDR H3
B22 came in with a koff in test [2] of 0.000614 s⁻¹.
Regarding Biotin-SGSGYESIKHEPENPPPYEE [peptide 16], in [1], the binding result is “no binding (tested: about 33 mcg/ml)”.
